Test results as given in article PMC8376870, “Auto-inhibitory intramolecular S5/S6 interaction in the TRPV6 channel regulates breast cancer cell migration and invasion” (Communications Biology, 2021).

Biological target: T1, GST-G511-V540 (TRPV6 S5 fragment) (human, UniProt Q9H1D0 511-540)
T1 construct: also called S5 (G511-V540); source: E. coli, purified (GST beads)
Assay: pull-down; purified His- or GST-tagged peptides from E. coli incubated together overnight at 4 °C, 50% beads (GST or Ni-NTA) added, washed with 1% NP-40, western blot
Conditions: both partners purified

T1 sequence (Q9H1D0 511-540): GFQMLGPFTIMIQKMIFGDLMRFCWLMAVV

binding result: binds
B1: His-MBP-A603-L632 (TRPV6 S6 fragment) (domain or fragment)
chain: not shown
notes: also called S6 (A603-L632); source: E. coli, purified (Ni-NTA beads)
